{"source": "paper doi:10.1101/2020.10.06.327809", "about": "(bioRxiv, 2020)", "biological_target": "the molecule itself", "experiment": "SEC"}
{"protein": "SepF-His (H. volcanii SepF expressed in E. coli, plasmid pSVA3969) (natural protein, Haloferax volcanii, UniProt D4H018 1-118, looked up) MGIMSKILGGGGSRTTEDYVELDLDDFDTARGDAGLSVHIAEIGGQQDVIAIKDAVYDGNLVIADITRHTTSDSTMEHIIDDLRQVAREVDGDIVQKGDDQIVITPTGISISRQKLNG", "values": [{"measurement": "stoichiometry N", "value": 2}]}
